According to the Immune Epitope Database (IEDB):

Experiments:
[1] = target: HLA-A*24:02; assay: IEDB peptide-MHC binding, purified MHC/competitive/fluorescence; filed as Kd, often an IC50 or EC50 that approximates it; ≥ and ≤ were set here for values at or beyond the usual limits of such assays
[2] = target: HLA-A*02:01; assay: as above
[3] = target: HLA-B*15:01; assay: as above; details: source organism: Acinetobacter baumannii
[4] = target: HLA-A*26:01; assay: as above; details: source organism: Acinetobacter baumannii
[5] = target: HLA-A*11:01; assay: as above; details: source organism: Acinetobacter baumannii
[6] = target: HLA-B*27:05; assay: as above; details: source organism: Acinetobacter baumannii
[7] = target: HLA-B*35:01; assay: as above; details: source organism: Acinetobacter baumannii
[8] = target: HLA-B*58:01; assay: as above; details: source organism: Acinetobacter baumannii
[9] = target: HLA-A*69:01; assay: as above; details: source organism: Acinetobacter baumannii
[10] = target: HLA-A*03:01; assay: as above; details: source organism: Acinetobacter baumannii
[11] = target: HLA-A*01:01; assay: as above; details: source organism: Acinetobacter baumannii
[12] = target: HLA-A*31:01; assay: as above; details: source organism: Acinetobacter baumannii
[13] = target: HLA-B*08:01; assay: as above
[14] = target: HLA-B*07:02; assay: as above; details: source organism: Acinetobacter baumannii
[15] = target: HLA-B*40:01; assay: as above; details: source organism: Acinetobacter baumannii
[16] = target: HLA-B*18:01; assay: as above; details: source organism: Acinetobacter baumannii
[17] = target: HLA-B*38:01; assay: IEDB peptide-MHC binding, purified MHC/direct/fluorescence; filed as Kd, often an IC50 or EC50 that approximates it; ≥ and ≤ were set here for values at or beyond the usual limits of such assays; details: source organism: Mycobacterium tuberculosis str. Haarlem
[18] = target: HLA-B*15:01; assay: as above; details: source organism: Mycobacterium tuberculosis
[19] = target: HLA-B*57:01; assay: as above; details: source organism: Mycobacterium tuberculosis
[20] = target: HLA-A*11:01; assay: as above; details: source organism: Mycobacterium tuberculosis
[21] = target: HLA-B*27:05; assay: as above; details: source organism: Mycobacterium tuberculosis
[22] = target: HLA-A*02:01; assay: as above; details: source organism: Mycobacterium tuberculosis
[23] = target: HLA-B*58:01; assay: as above; details: source organism: Mycobacterium tuberculosis
[24] = target: HLA-B*15:17; assay: as above; details: source organism: Mycobacterium tuberculosis
[25] = target: HLA-B*48:01; assay: as above; details: source organism: Mycobacterium tuberculosis
[26] = target: HLA-A*69:01; assay: as above; details: source organism: Mycobacterium tuberculosis
[27] = target: HLA-A*03:01; assay: as above; details: source organism: Mycobacterium tuberculosis
[28] = target: HLA-A*01:01; assay: as above; details: source organism: Mycobacterium tuberculosis
[29] = target: HLA-B*51:01; assay: as above; details: source organism: Mycobacterium tuberculosis
[30] = target: HLA-A*31:01; assay: as above; details: source organism: Mycobacterium tuberculosis
[31] = target: HLA-B*46:01; assay: as above; details: source organism: Mycobacterium tuberculosis
[32] = target: HLA-B*40:01; assay: as above; details: source organism: Mycobacterium tuberculosis
[33] = target: HLA-B*18:01; assay: as above; details: source organism: Mycobacterium tuberculosis
[34] = target: HLA-B*39:01; assay: IEDB peptide-MHC binding, purified MHC/competitive/fluorescence; filed as Kd, often an IC50 or EC50 that approximates it; ≥ and ≤ were set here for values at or beyond the usual limits of such assays; details: source organism: Mycobacterium tuberculosis variant bovis BCG str. Pasteur 1173P2
[35] = source organism: Salmonella enterica subsp. enterica serovar Typhi
[36] = source organism: Acinetobacter baumannii

TLMFGFFGF
Kd [1, 35]: ≥ 5 µM | Kd [2, 35]: 4 µM

SIYAGNTPK
Kd [1, 36]: ≥ 20 µM | Kd [3]: ≥ 20 µM | Kd [4]: ≥ 20 µM | Kd [5]: 0.015 µM | Kd [6]: ≥ 20 µM | Kd [7]: ≥ 20 µM | Kd [2, 36]: ≥ 20 µM | Kd [8]: ≥ 20 µM | Kd [9]: ≥ 20 µM | Kd [10]: 0.0385 µM | Kd [11]: ≥ 20 µM | Kd [12]: 0.0344 µM | Kd [13, 36]: ≥ 20 µM | Kd [14]: ≥ 20 µM | Kd [15]: ≥ 20 µM | Kd [16]: ≥ 20 µM

RPPMVTSGL
Kd [17]: ≥ 20 µM | Kd [18]: ≥ 20 µM | Kd [19]: ≥ 20 µM | Kd [20]: ≥ 20 µM | Kd [21]: ≥ 20 µM | Kd [22]: ≥ 20 µM | Kd [23]: ≥ 20 µM | Kd [24]: ≥ 20 µM | Kd [25]: ≥ 20 µM | Kd [26]: ≥ 20 µM | Kd [27]: ≥ 20 µM | Kd [28]: ≥ 20 µM | Kd [29]: ≥ 20 µM | Kd [30]: ≥ 20 µM | Kd [31]: ≥ 20 µM | Kd [32]: ≥ 20 µM | Kd [33]: ≥ 20 µM | Kd [34]: ≥ 20 µM | Kd ([13]; source organism: Mycobacterium tuberculosis variant bovis BCG str. Pasteur 1173P2): ≥ 20 µM
